According to paper PMC4733404:

Molecular target: BDBV GP[change] (recombinant GP form that lacks the highly glycosylated mucin-like domains) (Bundibugyo virus (BDBV))
Test: negative-stain single-particle electron microscopy

BDBV GP[change] (recombinant GP form that lacks the highly glycosylated mucin-like domains) (domain or fragment)
stoichiometry N: 3
